Measurements as given in the supplement of paper PMC9170038.

Tested on: MS2 coat protein
Test: apparent KD of MS2 coat protein; designed switch direction (-1 OFF switch, 1 ON switch): -1; higher = weaker reporter binding
In short: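 Normalised cluster fluorescence was curve-fitted, and each design's median over clusters is its apparent KD. Before this, SNAP-549-labelled MS2 coat protein was titrated from 0.7 or 1.5 nM, doubling to 3 µM, over RNA switches transcribed on Illumina chips by stalled E. coli RNA polymerase. Titrations had no input, 200 uM small-molecule ligand, or an oligonucleotide input, and steps lasted 0.8–1.5 h (lowest) to 10–20 min (highest).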

[1] = Eterna round: R95, input ligand: FMN 200 uM
[2] = Eterna round: R95, input ligand: microRNA oligo, concentration not stated
[3] = Eterna round: R95, input ligand: none
[4] = input ligand: microRNA oligo, concentration not stated

Sequence	apparent KD of MS2 coat protein [1]	apparent KD of MS2 coat protein [2]	apparent KD of MS2 coat protein [3]	apparent KD of MS2 coat protein (input ligand: FMN 200 uM)	apparent KD of MS2 coat protein (input ligand: none)	apparent KD of MS2 coat protein [4]
GGUCAAGAACAGAUCCGCGCUGCCAUUGACCGCUCAUUUACAUGAGGAUCACCCAUGUUUUUUGCUCGUCUUACUAC [Edesso] (puzzle: Sensor v3, turn-off variant 2)	20.8 nM	61.4 nM	19.3 nM			
GAGUGACAUGAGGAUCACCCAUGUGAGGAUAUCGGACGGACCUUGUUAGCUUCCGCCGCGAGAAGGCACAUCGG [Exclusion 1 V25] (puzzle: Exclusion 1)		94.3 nM				
AAUGUGUGAGGAUAUUAAUUGUAAUUGAAUAGAAUUAUGAUUGAGAAGGCACAUGAGGAUCACCCAUGUUCCAA [JR_Ex4_Sub082] (Eterna round: R97, puzzle: Exclusion 4)				187 nM	31.2 nM	
AGAUAACAUGAGGAUCACCCAUGUGAGGAUAUUUACCCAAGAGCUUCGGCUCUCAGGUGAAGAAGGCACGUUGA [EX1 #59] (Eterna round: R97, puzzle: Exclusion 1)				109 nM	55.4 nM	
AGACAGUCAGGAUAUACAUGAGGAUCACCCAUGUUGAGAUGUGAAAGGGCAGGAAUAGGUAGAAGGGACGAGAG [JR_Exclu3_Sub038] (puzzle: Exclusion 3)		30.6 nM				
AAGAAAGACGAAGGAUAUUCAGGCGCCGAAGUAGAAGAAGGUCGUCCGGGUGUCCUAAAACUUGAGGAUCACCCAAGUAGAAGA [Mutated MS2 EX1.2] (Eterna round: R96, puzzle: Exclusion NG 1)				62.1 nM	25.5 nM	6.43 nM
CGUGCGUAUGUGAGGAUAUGCUGGUCCUUGGAUCGGCAGAAGGUACAUGAGGAUCACCCAUGUGGUGUCGUUCU [salish99_Bmod_ex4_106] (puzzle: Brourd's mod of Exclusion 4)		171 nM				
UAAAAGCUAGGAUAUACAUGAGGAUCACCCAUGUAAUCUCUCACUUACACGGAGGAUCGUAGAAGGAGCACAAA [Inlaveti] (puzzle: Exclusion 3)		20.3 nM				
AACCUAAGGCAUAGCUUUAGGUUUACAUGAGGAUCACCCAUGUAGGAUAUGGUAGGCAUAGCUUACCAGAAGGACAUGAAAAUU [Mat - Exclusion NG 3 - Mod of JL - D31] (Eterna round: R96, puzzle: Exclusion NG 3)				240 nM	46.1 nM	46.8 nM
CUUGAGCAGGUAGGAUAUACGAAGUGUCGGCGAGUAGAAGGACCUGCGAUCCACUUGAGGAUCACCCAAGUUCGCAGGAGAACA [Mutated MS2 EX1.1] (Eterna round: R96, puzzle: Exclusion NG 1)				241 nM	61.3 nM	32.4 nM
AAAAAAAAAGUGAGGAUAUGCUCUACCUCGGUAGAGCAGAAGGCACAUGAGGAUCACCCAUGUGACUCCUCAUU [Omei Ex4B B25] (Eterna round: R97, puzzle: Brourd's mod of Exclusion 4)				29.6 nM	19.1 nM	
UCGCUCCGUGUAGGAUAUCGCCGUUCUAUUCGGCGAGAAGGACAUGAGGAUCACCCAUGUAUGUUAUUAUCACGCGUGGCGCGC [Design 56] (Eterna round: R96, puzzle: Exclusion NG 1)				18.8 nM	15.4 nM	8.79 nM
UCGUGGUAAAUCAGAAGUUUCCUGAGCGGAGGAACUUUGACAUGAGGAUCACCCAUGUUGCUUUUUGCUCAUCUUAA [JR_SV3TOV2_Sub043] (puzzle: Sensor v3, turn-off variant 2)	15.3 nM	41.8 nM	12.9 nM			
GUUUUCAGACGGAGAUCCUACAUGAGGAUCACCCAUGUCUCACUAGUUUUUUGCUCGUCUUAUCCUCCUCUGUUCUC [Elimod 29 - Jieux - Sensor, turn-off variant 1] (Eterna round: R97, puzzle: Sensor, turn-off variant 1)				413 nM	926 nM	
GAACUGAGGCAAAGCUUUAGUCGUACAUGAGGAUCACCCAUGUAGGAUAUGGUAGGCAAAGCAUACCAGAAGGACAGAGUGAUC [Mat - Exclusion NG 3 - Mod of JL - D61] (Eterna round: R96, puzzle: Exclusion NG 3)				877 nM	476 nM	313 nM
CUAUGUGAUUAGGAUAUUACUGGGCUAUCGCCUUGAGAAGGAGUUACAUGAGGAUCACCCAUGUCAACGCGACC [Eternabot (L2) Solution 44] (Eterna round: R97, puzzle: Exclusion 6)				17.8 nM	19.1 nM	
CCAAGCUUGUUCAUUAUCCACAUGAGGAUCACCCAUGUCUUGGCAAUUAUGACCUGCCCGUCAGGAGCUCGUCUUAU [Sensor-V1 #37] (Eterna round: R97, puzzle: Sensor, turn-off variant 1)				316 nM	346 nM	

Sequence	apparent KD of MS2 coat protein [1]	apparent KD of MS2 coat protein [2]	apparent KD of MS2 coat protein [3]	apparent KD of MS2 coat protein (input ligand: FMN 200 uM)	apparent KD of MS2 coat protein (input ligand: none)	apparent KD of MS2 coat protein [4]
GAUUAUGCGAGCUUUAGGGACAUGAGGAUCACCCAUGUUCGUCUUAUUGAUCUAGAUGCACUGACAUACCUAAAUCU [JMF 77] (puzzle: Sensor v3, turn-off variant 1)	15.1 nM	18.7 nM	17.2 nM			
CAGUACUGAGGAUAUACAUGAGGAUCACCCAUGUUGAGAUGAAAAGAAAUAGUUUCAUGUAGAAGGCGGUGCUG [JR_Ex3_Sub048] (Eterna round: R97, puzzle: Exclusion 3)				365 nM	118 nM	
AGAAGUAGAAACCGAUCCUACAUGAGGAUCACCCAUGUAGCAAGACGUGCACGCGAAGCUCGUCAGACUACCAGAAC [salish99_TOv1_r3_008] (puzzle: Sensor v3, turn-off variant 1)	229 nM	264 nM	421 nM			
CAUGAGGGAGGAUAUACAUGAGGAUCACCCAUGUAACUGGGAGUAGUUCUUCGUAGUCGUAGAAGGCCUGAGGG [Eternabot (L1) Solution 14] (Eterna round: R97, puzzle: Exclusion 3)				242 nM	723 nM	
AGUAACCGUCACGAAAGUGAUGGUUACACAAGCAAAUGUACAUGAGGAUCACCCAUGUCCUCAUUUGUUCGUCUUAU [Sensor 3 - 47] (Eterna round: R96, puzzle: Sensor v3, turn-off variant 2)				101 nM	104 nM	305 nM
CCCACAAGCUUUUUGCUCGACAUGAGGAUCACCCAUGUUGAAUGGGUUAGAUGUGUGUGAAACAUAUAUAUUUACCU [-24.2, -47 kcal, A 27%] (Eterna round: R97, puzzle: Sensor, turn-off variant 1)				25.5 nM	26.4 nM	
GGGUGUGCUAAGGAUAUCGGACCAUCGGGUAACUGAGAAGGUAGCACAUGAGGAUCACCCAUGUGUAACUUGAU [EX6 B.12] (Eterna round: R97, puzzle: Exclusion 6)				159 nM	16 nM	
AUCAGCUCGUGAGGAUAUAUAUACAUGAGGAUCACCCAUGUAAGAUCAGGCUUCGGCCAAUGUAUAUAGAAGGCACGAGCUGAU [ENG2/11-A3] (Eterna round: R96, puzzle: Exclusion NG 2)				403 nM	808 nM	535 nM
UGAGCUUGAGGAUAUACAAGGCGACCGUGAGGUCGAGGUUUACAUGAGGAUCACCCAUGUAGAAGGCAAGUUCU [Mat - Exclusion 2 - JL Mod - D8] (Eterna round: R97, puzzle: Exclusion 2)				41.9 nM	18.5 nM	
AGCAUGGUAGGAUAUACGGAGCAUUAGGGUUUGUUAUGUGGACAUGAGGAUCACCCAUGUAGAAGGGCCGUGCA [Mat - Exclusion 2 - Mod of JL - D82] (puzzle: Exclusion 2)		32.6 nM				
UGCCGUUUAGGAUAUACAUGAGGAUCACCCAUGUGACACACAUAUUUUACAAAACCAUGUAGAAGGAAACGGCA [E3-1.0] (Eterna round: R96, puzzle: Exclusion 3)				542 nM	114 nM	95.4 nM
GUGGUACAUGAGGAUCACCCAUGUUAGGAUAUCGCGUGAGGUAAAACUUACACACACACGAGAAGGGACGACAU (puzzle: Exclusion 1)		64.4 nM				
AAGAUGUCAGGAUAUUAGUAGUAAAUAAAUAAAAUUAUUACUGAGAAGGGACAUGAGGAUCACCCAUGUGCCUU [Salish 062 v10] (Eterna round: R97, puzzle: Exclusion 4)				16.4 nM	16.9 nM	
UUGUUAUAUGUAGGAUAUGCGUAUUAUUAUUAGGCAGAAGGACAUGAGGAUCACCCAUGUAUGUUGUUGUUAUAUAUUAUAUAU [Title] (Eterna round: R96, puzzle: Exclusion NG 1)						20.6 nM
AGAGUGCUGCGAGGAUAUACAUGAGGAUCACCCAUGUUUACCUGUGAGGCAAAGCCUCACAGGUUGUAGAAGGCGCAGUACUCA [Mat - Exclusion NG 2 - Mod of JL - D42] (Eterna round: R96, puzzle: Exclusion NG 2)				9.39 nM	19.4 nM	10.1 nM
AACGUCUAGGUAGGAUAUCCACCAACAGGUGGAAGGAUAUGUUCGCAGAAGGUUCGCCAACAGGCGGAGAAGGACCUACGCGUA [pwkr exNG2 2xF7 2xFMN.31] (Eterna round: R96, puzzle: Exclusion NG 2)				11.1 nM	116 nM	24.6 nM
GGUGCGUUUGUGAGGAUAUGCUGGUCCUUGGAUCAGCAGAAGGCACAUGAGGAUCACCCAUGUGGUGUCGGUCC [salish99_Bmod_Ex4_038] (puzzle: Brourd's mod of Exclusion 4)		252 nM				
